Results taken from PMC10470521, “Structural basis of a bi-functional malonyl-CoA reductase (MCR) from the photosynthetic green non-sulfur bacterium Roseiflexus castenholzii” (mBio, 2023).
Changes are numbered by the printed parent chain. Numbers in names are those of the source.

B1: full-length malonyl-CoA reductase from Roseiflexus castenholzii (RfxMCR) (enzyme, Roseiflexus castenholzii DSM 13941, UniProt A7NN59 1-1229, looked up)
chain: MSTVRRLEGKVALITGGAGNIGEVITRRFLAEGATVVITGRNAEKLAVYRRRLIDEERVAPERVVALRMDGSDIAQVRAGVAQIVHGGTDVPIPLHRIDILVNNAGSAGPRRRLVDIPLEPSEVQPPDSETLAQAVGNLVGITWNLTRAAAPHMPSGSSVINISTIFSRTDYYGRIAYVAPKAALNALSDGLARELGVRGIRVNTIYPGPIESERIYTMFQAMDALKGQPEGDTASGFLRMMRLSRIDQNGEVVKRFPSPVDVANTAVFLASDESAAFTGHAFEVTHGMEVPTESRTTFVSRPGLRSVDATGKVILICAGDQVDDAVALADTLRSCRATVVIGFRDPRALEKASVLLREPRHALAADMYGRPTMTAEARLVRLDPLDPRAAAQTLEQIHAELGAIHHAVVLPGQSRHAPSASLIEVDDQVVERFLHQELVGTIALARELARFWEEYPSGSSMHRVLFVSNPDDQQGNQYSHILRAAVEQLVRVWRHESEYDSVNPAHQQEGQSSAAVWANQLIRYVNNEMANLDFTCAWVAKLLGSDRRIAEINLYLPEEIVGTIGVHNPGFGWAESLFGLHMGKVALITGGSAGIGGQIGRLLALSGAHVMLAARNADQLEQMRASIVREVRDASYPDAESRVAIFPGSDVSDIDGLERLVNHTVRVFGKVDYLINNAGIAGAEEMVIDMPVDAWRHTLRANLISNYALLRRLAPQMKAAGGAYVLNVSSYFGGEKYVAIPYPNRSDYAVSKAGQRAMVESLARFLGPEIQINAIAPGPVEGERLKGAGSRPGLFMRRARLILENKRLNEVFAALLAARHEGATIADLLPDLFANDIQSIANSAAMPAPLRRLATMLRETSDAGGSAQSYLMNATIARKLLNRLENGGYITLHDRRALTVEPPEPFFTEAQIEREAIKVRDGILGMLHLQRMPTEFDVALATVFYLADRNVTGETFHPSGGLRFERTVTEGELFGKPGQQRLERLKGSVVYLIGEHLRQHLVLLARTFLDEIHVARVVLLTETTQAATDLAAELSDYEAAGRFVVIPTCGDIEGGIDRAMAEYGRPGPVISTPFRPLPDRALSARNGDWSSVLTTAEFEELVEQQITHHFRVARKAGLIEGANVTLVTPPTSARSTSEEFALANFVKTTLHALTATAGAESERTVPHVPVNQVDLTRRARSEEPRTPSEEEEELQRFVNAVLLTSAPLPTPLESRYRARIYRGNAITV
notes: malonyl-CoA reductase (MCR) of Roseiflexus castenholzii DSM 13941, gene Rcas_2929, full length Met1-Val1229; Cloned into pET20b at XhoI and NdeI; also called full-length RfxMCR; wild-type RfxMCR
B2: RfxMCR triple mutant W574A E576A F579A (enzyme, Roseiflexus castenholzii DSM 13941)
chain: B1 chain with W574A, E576A, F579A
notes: malonyl-CoA reductase (MCR) of Roseiflexus castenholzii DSM 13941, gene Rcas_2929, with W574A, E576A and F579A; source: E. coli BL21(DE3), purified following the same procedure as the wild-type protein
B3: RfxMCR double mutant W574A E576A (enzyme, Roseiflexus castenholzii DSM 13941)
chain: B1 chain with W574A, E576A
notes: malonyl-CoA reductase (MCR) of Roseiflexus castenholzii DSM 13941, gene Rcas_2929, with W574A and E576A; source: E. coli BL21(DE3), purified following the same procedure as the wild-type protein
B4: RfxMCR single mutant E576A (enzyme, Roseiflexus castenholzii DSM 13941)
chain: B1 chain with E576A
notes: malonyl-CoA reductase (MCR) of Roseiflexus castenholzii DSM 13941, gene Rcas_2929, with E576A; source: E. coli BL21(DE3), purified following the same procedure as the wild-type protein
B5: RfxMCR-N (Met1-Phe572) (domain or fragment, Roseiflexus castenholzii DSM 13941, UniProt A7NN59 1-572, looked up)
chain: MSTVRRLEGKVALITGGAGNIGEVITRRFLAEGATVVITGRNAEKLAVYRRRLIDEERVAPERVVALRMDGSDIAQVRAGVAQIVHGGTDVPIPLHRIDILVNNAGSAGPRRRLVDIPLEPSEVQPPDSETLAQAVGNLVGITWNLTRAAAPHMPSGSSVINISTIFSRTDYYGRIAYVAPKAALNALSDGLARELGVRGIRVNTIYPGPIESERIYTMFQAMDALKGQPEGDTASGFLRMMRLSRIDQNGEVVKRFPSPVDVANTAVFLASDESAAFTGHAFEVTHGMEVPTESRTTFVSRPGLRSVDATGKVILICAGDQVDDAVALADTLRSCRATVVIGFRDPRALEKASVLLREPRHALAADMYGRPTMTAEARLVRLDPLDPRAAAQTLEQIHAELGAIHHAVVLPGQSRHAPSASLIEVDDQVVERFLHQELVGTIALARELARFWEEYPSGSSMHRVLFVSNPDDQQGNQYSHILRAAVEQLVRVWRHESEYDSVNPAHQQEGQSSAAVWANQLIRYVNNEMANLDFTCAWVAKLLGSDRRIAEINLYLPEEIVGTIGVHNPGF
notes: malonyl-CoA reductase (MCR) of Roseiflexus castenholzii DSM 13941, gene Rcas_2929, residues Met1-Phe572 (SDR1 and SDR2 domains); Cloned into pET28a at XhoI and NcoI; also called N-terminal fragment; SDR1-SDR2

Columns and labels:
[1] = substrate: CC(C)(COP(=O)(O)OP(=O)(O)OC[C@H]1O[C@@H](n2cnc3c(N)ncnc32)[C@H](O)[C@@H]1OP(=O)(O)O)[C@@H](O)C(=O)NCCC(=O)NCCSC(=O)CC(=O)O; test: purified protein; assay type: biochemical, Roseiflexus castenholzii; conditions: 0.4 mM NADPH, 5 mM MgCl2, 100 mM Tris-HCl pH 8.0, 150 mM NaCl, 50°C, apparent, overall two-step reduction
[2] = molecular target: the molecule itself; test: SEC; gel filtration on HiLoad 16/600 Superdex 200PG; 25 mM Tris-HCl pH 8.0, 150 mM NaCl
[3] = molecular target: the molecule itself; test: crystal structure; RfxMCR-N with NADP+ and MSA; 1 M sodium malonate pH 5.0, 0.1 M sodium acetate pH 4.5, 3% PEG 20,000, 16°C; P6(5)22, one monomer in the asymmetric unit, dimer by crystal packing; 2.0 Å

Protein | stoichiometry N [2] | further results
B1 | 2 | Km [1]: 380 ± 80 µM; kcat [1]: 5.65 ± 0.57 s⁻¹; kcat/Km [1]: 14800 ± 1540 M⁻¹ s⁻¹
B2 | 2 | –
B3 | 2 | –
B4 | 2 | –
B5 | – | stoichiometry N [3]: 2
